Data: PMC12057046, “Elucidation of short linear motif-based interactions of the MIT and rhodanese domains of the ubiquitin-specific protease 8” (Biology Direct, 2025)

B1: KIAA1614 peptide 568-583 (uncharacterized protein KIAA1614), 16-mer library wild type / USP8 rhodanese domain (ubiquitin carboxyl-terminal hydrolase 8, residues 174-317) (parent)
chain 1: GMERVLGGLSSPLRLL
chain 2: KCETKEKGAITAKELYTMMTDKNISLIIMDARRMQDYQDSCILHSLSVPEEAISPGVTASWIEAHLPDDSKDTWKKRGNVEYVVLLDWFSSAKDLQIGTTLRSLKDALFKWESKTVLRNEPLVLEGGYENWLLCYPQYTTNAKV
B2: TET3 peptide 1705-1720 (methylcytosine dioxygenase TET3), 16-mer library wild type / USP8 rhodanese domain (ubiquitin carboxyl-terminal hydrolase 8, residues 174-317) (parent)
chain 1: GLALWEAKMKQLAERA
chain 2: B1 chain 2

Variants of: B1
Assay: peptide-phage display deep mutational scan (M13, 16-mer library, displayed with a C-terminal GGGSG linker encoded by the 3' flank) selected against the GST-tagged USP8 rhodanese domain, four rounds; NGS counts summed over selection …
Conditions: with USP8 rhodanese domain (ubiquitin carboxyl-terminal hydrolase 8, residues 174-317), 10 µg GST-bait on MaxiSorp, pre-cleared on GST, 2 h at 4 °C, five washes with 0.05% Tween 20 in PBS, not graded, scale: average over two replicas of the peptide's fractional NGS count

Screen value of substitutions, site by site:
chain 1 L16: V 5.05e-05; I 0.000468; M 0.00379; F 2.53e-05; H 0.000246; G 6.32e-06; P 1.26e-05; A 1.55e-05; T 1.55e-05; Q 7.58e-05; N 6.32e-06
chain 1 S11: D 0.0401; N 0.0195; R 6.32e-06; F 2.53e-05; Y 6.32e-06; V 2.18e-05; A 1.26e-05; E 0.000128; T 0.000682
chain 1 G1: F 6.32e-06; K 0.000202; Q 0.0088; L 3.16e-05; N 0.0012; Y 0.000202; R 0.000532; A 0.0197; W 0.00137; V 3.79e-05; I 8.36e-05; S 0.00457; M 0.000324; T 0.00523; E 0.000708; D 0.00131; H 0.00494; P 0.00104
chain 1 G8: V 0.000138; N 1.26e-05; T 6.32e-06; D 6.32e-06
chain 1 M2: F 0.00131; P 0.0198; Q 0.00237; V 0.0166; E 0.0668; L 0.00111; T 0.0119; K 0.00296; A 0.00538; N 0.00694; S 0.00782; H 0.0157; D 0.0101; I 0.00918; R 0.00145; W 0.000604; Y 0.00188; G 0.0456
chain 1 R4: W 5.05e-05; T 6.32e-06; L 1.26e-05; N 1.9e-05; A 1.55e-05
chain 1 E3: H 0.00012; V 1.26e-05; A 0.000229; T 8.85e-05; Y 0.000118; F 6.32e-06; N 0.000897; L 6.32e-05; S 0.000223; D 0.00356; W 0.000133; P 9.48e-05; Q 0.00108
chain 1 G7: V 0.0068; R 0.00011; S 0.000797; A 0.00275; L 0.000596; N 0.00247; D 0.0412; K 1.55e-05; E 0.00446; W 6.32e-06; H 0.000322; F 0.00722; P 1.55e-05; M 0.00706; Y 0.000924; I 0.000523; T 0.0883; Q 0.00689
chain 1 P12: Q 6.32e-06; S 0.000236; R 1.26e-05; T 1.55e-05; L 6.32e-06
chain 1 S10: H 0.00191; P 1.55e-05; A 6.32e-06; E 1.55e-05; I 6.32e-06; V 6.32e-06
chain 1 L9: T 0.0151; G 9.76e-05; R 1.26e-05; P 0.000947; I 0.000484; V 0.00586; H 4.07e-05; Y 6.18e-05; Q 0.0169; E 0.164; A 0.00126; K 9.69e-05; D 0.0392; W 0.000202; F 3.79e-05; S 0.000763; N 0.00178; M 9.62e-05
chain 1 R14: K 0.000355; G 1.9e-05; V 0.0436; L 0.000793; W 0.00337; F 0.00138; Y 0.000377; N 5.27e-05; H 0.000346; E 1.9e-05; T 0.00135; M 0.0219; I 0.00646; S 0.00245; A 0.00719; Q 3.44e-05
chain 1 L6: V 6.32e-06; T 5.05e-05; F 6.32e-06; I 0.00654; S 6.32e-06; G 6.88e-05; P 0.000164; N 6.32e-06; Q 1.9e-05
chain 1 L15: I 6.32e-06; A 1.26e-05; V 1.26e-05; N 1.26e-05; G 1.26e-05
chain 1 L13: S 0.00179; N 6.32e-06; P 1.26e-05; A 4.42e-05; M 0.000258; D 3.72e-05; R 1.26e-05; E 0.000467; W 0.000724; G 6.32e-05; K 6.32e-06; T 0.00145; Y 0.000122; F 3.09e-05; V 0.000364; H 2.53e-05
chain 1 V5: W 0.011; D 0.0242; N 0.00579; Y 0.00426; F 0.0191; S 0.000158; R 0.000121; I 9.76e-05; M 0.00268; A 0.000433; Q 0.014; E 0.0217; P 0.00189; H 0.0085; K 6.6e-05; L 0.000344; G 0.00207; T 0.0104

Variants of: B2
Assay: as above
Conditions: with USP8 rhodanese domain (ubiquitin carboxyl-terminal hydrolase 8, residues 174-317), 10 µg GST-bait on MaxiSorp, pre-cleared on GST, 2 h at 4 °C, five washes with 0.05% Tween 20 in PBS, not graded, scale: average over two replicas of the peptide's fractional NGS count

Screen value, by site and new letter:
chain 1 W5: V 4.33e-06; H 4.33e-06; G 7.36e-05; P 4.33e-05; T 4.33e-06; R 1.58e-05; L 1.15e-05; S 7.78e-05; K 8.66e-06; M 0.00029; F 4.33e-06
chain 1 R15: T 0.00935; W 0.000125; Y 0.0485; S 0.0149; V 2.45e-05; Q 0.0216
